B1: ROCK coiled-coil domain (ROCK-CC, residues 535–700) of human ROCK I (domain or fragment, UniProt Q13464 535-700, looked up)
chain: LANEKLSQLQKQLEEANDLLRTESDTAVRLRKSHTEMSKSISQLESLNRELQERNRILENSKSQTDKDYYQLQAILEAERRDRGHDSEMIGDLQARITSLQEEVKHLKHNLEKVEGERKEAQDMLNHSEKEKNNLEIDLNYKLKSLQQRLEQEVNEHKVTKARLTD
modifications: selenomethionine (SeMet) substituted protein in the crystals used for the structure
notes: Rho-associated kinase ROCK I (p160 ROCK), human, residues 535-700 of the central coiled-coil domain; The model holds residues 542–693 (A), 541–692 (B), 535–692 (C), 535–693 (D); also called ROCK (535–700); p160 ROCK (535–700); source: E. coli Rosetta2 (DE3), purified (Ni-NTA, TEV cleavage, cation exchange HiTrap SP); not shown: 6xHistidine-TEV, N-terminal, cleaved
B2: ROCK (535–704), coiled-coil fragment of human ROCK I (domain or fragment, UniProt Q13464 535-704, looked up)
chain: LANEKLSQLQKQLEEANDLLRTESDTAVRLRKSHTEMSKSISQLESLNRELQERNRILENSKSQTDKDYYQLQAILEAERRDRGHDSEMIGDLQARITSLQEEVKHLKHNLEKVEGERKEAQDMLNHSEKEKNNLEIDLNYKLKSLQQRLEQEVNEHKVTKARLTDKHQS
notes: Rho-associated kinase ROCK I (p160 ROCK), human, residues 535-704 of the central coiled-coil domain; The purification is described only for ROCK (535–700); also called ROCK-CC (as called in the text and legend title of the SEC-MALS experiment); source: E. coli Rosetta2 (DE3), purified

Experiments:
[1] = biological target: the molecule itself; test: crystal structure; SeMet ROCK (535–700), space group P4(3)2(1)2; 13% MPD, 100 mM NaCl, 100 mM sodium acetate pH 4.9, 10 mM DTT, 5% glycerol, 10 mM spermidine; SAD phasing; four molecules (2 dimers) per asymmetric unit
[2] = biological target: the molecule itself; test: SEC-MALS; Superdex 200 in 20 mM Hepes pH 7.5, 150 mM NaCl, 2 mM TCEP; Wyatt miniDAWN TREOS three-angle light scattering detector and Optilab-rEX refractive index detector

Protein	binding result [1]	stoichiometry N [2]
B1	binds	
B2		2
